The values below come from patent US20040198656A1, “Methods of screening molecules that are used to prevent cardiovascular diseases” (priority 2001, published 2004).

Type in all cases: in vivo
One data set deals with LpL. In words: LpL activity in post-heparin plasma (total lipase minus HL). The settings on record: human AA4RP transgenic mice, FVB/N background. How it is done:
(§1) The test was carried out on post-heparin plasma (collected 5 min after heparin injection) from transgenic mice and control mice with a FVB/N genetic background. Total lipase activity was determined by incubation with radiolabelled triolein and in the presence of a cofactor (apo CII). HL activity was determined after incubation of each plasma sample with triolein but in this case in the absence of apo CII and in the presence of 1 M NaCl to eliminate LpL activity. Lipase activity in each plasma sample was then calculated by determining the number of moles of free fatty acid. Finally, LpL activity was calculated by subtracting HL activity from total lipase activity.

The next data set relates to total lipase. Kind of data set: Total lipase activity in post-heparin plasma (radiolabelled triolein, apo CII). The settings on record: human AA4RP transgenic mice, FVB/N background. On the procedure:
as §1

Data set [1] is described as follows: Triglyceride distribution in VLDL, LDL and HDL (Superose 6 FPLC) of plasma. The settings on record: AA4RP transgenic mice versus control mice, plasma fractions. On the procedure:
The distribution of triglycerides in VLDL, LDL and HDL was studied on 200 μl fractions of plasma from AA4RP transgenic mice or control mice maintained on a lipid-rich diet.
The different particles were fractionated on a Pharmacia Superose 6 column integrated in an AKTA FPLC system (Pharmacia Biotech, Umeå, Sweden). The different fractions were eluted with 0.01 M PBS, 0.1 M NaCl, pH 7.2 at a flow rate of 0.2 ml/min. The triglyceride concentration in each fraction was determined as described hereinabove.

Data set [2] is described as follows: Triglyceride levels in AA4RP transgenic mice on a lipid-rich diet. How it is done: Samples from AA4RP transgenic mice or control mice maintained on a lipid-rich diet were diluted 1/3 or 1/5in physiological serum, then assayed for triglycerides against a calibration curve prepared with CFAS lipid calibrator, Ref. 759350 (Boehringer Mannheim GmbH, Germany). The calibration curve covered a concentration range of 16 to 500 μg/ml. 100 μl of each sample dilution or calibration point were deposited in each well of a 96-well titration plate. Next, 200 μl of triglyceride reagent Ref. 701912 (Boehringer Mannheim GmbH, Germany) were added to each well and the plate was incubated at 37° C. for 30 min. Optical densities (OD) were read on a spectrophotometer set at 492 nm. Triglyceride concentrations in each sample were calculated from a standard curve plotted as a linear equation y=ax+b, where y represents OD and x represents triglyceride concentration.

The subject of the next data set is HL. Kind of data set: HL activity in post-heparin plasma (triolein, no apo CII, 1 M NaCl). The conditions noted are these: human AA4RP transgenic mice, FVB/N background. On the procedure: as §1
Another data set has as its system apo CIII. In words: Apo CIII assay by immuno-nephelometry in mice overexpressing human AA4RP. The conditions noted are these: AA4RP transgenic mice, lipid-rich diet. How it is done: Apo CIII in mice overexpressing human AA4RP was assayed by immuno-nephelometry on an ARRAY® immunochemistry system (Beckman Coulter, Villepinte, France). Pooled sera from normolipidic mice were used as standard; the apo CIII concentration therein was 25 μg/ml. A calibration curve from 4 μg/ml to 25 μg/ml was prepared by diluting the standard in 0.01 M potassium phosphate pH 7.2.
Plasma samples from mice overexpressing human AA4RP or not, maintained on a lipid-rich diet, and plasma samples from knock out homozygous (−/−), heterozygous (+/−) or wild type (+/+) mice were diluted 1/6 or 1/12 in the same conditions as the standard. Forty-two microliters of each calibration point and each sample from the different mice under study were incubated with 42 μl of mouse anti-apo CIII (in a reaction cell containing polyethylene glycol (PEG)). The apo CIII concentration in the sample is directly proportional to the light intensity reflected by the precipitate formed during the antigen-antibody reaction.

B1: AA4RP: Protein of 366 amino acids (SEQ ID NO 1), apolipoprotein AIV related protein; overexpressed in transgenic mice (protein, listed as Homo sapiens)
chain: MASMAAVLTWALALLSAFSATQARKGFWDYFSQTSGDKGRVEQIHQQKMAREPATLKDSLEQDLNNMNKFLEKLRPLSGSEAPRLPQDPVGMRRQLQEELEEVKARLQPYMAEAHELVGWNLEGLRQQLKPYTMDLMEQVALRVQELQEQLRVVGEDTKAQLLGGVDEAWALLQGLQSRVVHHTGRFKELFHPYAESLVSGIGRHVQELHRSVAPHAPASPARLSRCVQVLSRKLTLKAKALHARIQQNLDQLREELSRAFAGTGTEEGAGPDPQMLSEEVRQRLQAFRQDTYLQIAAFTRAIDQETEEVQQQLAPPPPGHSAFAPEFQQTDSGKVLSKLQARLDDLWEDITHSLHDQGHSHLGDP
For the molecule B1, the “LpL activity versus controls” value in the data set on LpL is listed as “significant increase”. Also, the “Total lipase activity versus controls” value with total lipase was “significant increase”. Also, in data set [1], the “Accumulation of triglyceride-rich particles after a lipid-rich diet” value is reported as “not observed”. Besides, in data set [2] (Student's t test p<0.001), the “Triglyceride levels versus control mice” value is listed as “significantly lower”. In addition, the Triglycerides in data set [2] (mean) amounted to 0.361 mg/mL. Further, the “HL activity versus controls” value in the data set on HL was “significant increase”. For the same molecule, the “Apo CIII level versus control mice” value with apo CIII is listed as “approximately three times lower”. In the data set on apo CIII (plasma, mean), the “Apo CIII” value worked out at 30.70 µg/mL.
